Patent publication US20230069835A1 (ACADEMIA SINICA, published 2023)

Target: T1, microsomal triglyceride transfer protein (MTTP), endogenous, in mouse intestinal epithelial cell lysates (mouse, UniProt O08601 22-894, limits assumed)
T1 construct: Endogenous protein in IEC or intestinal cell lysates of control, PRAP1-/- or E85V mice
T1 sequence (looked up): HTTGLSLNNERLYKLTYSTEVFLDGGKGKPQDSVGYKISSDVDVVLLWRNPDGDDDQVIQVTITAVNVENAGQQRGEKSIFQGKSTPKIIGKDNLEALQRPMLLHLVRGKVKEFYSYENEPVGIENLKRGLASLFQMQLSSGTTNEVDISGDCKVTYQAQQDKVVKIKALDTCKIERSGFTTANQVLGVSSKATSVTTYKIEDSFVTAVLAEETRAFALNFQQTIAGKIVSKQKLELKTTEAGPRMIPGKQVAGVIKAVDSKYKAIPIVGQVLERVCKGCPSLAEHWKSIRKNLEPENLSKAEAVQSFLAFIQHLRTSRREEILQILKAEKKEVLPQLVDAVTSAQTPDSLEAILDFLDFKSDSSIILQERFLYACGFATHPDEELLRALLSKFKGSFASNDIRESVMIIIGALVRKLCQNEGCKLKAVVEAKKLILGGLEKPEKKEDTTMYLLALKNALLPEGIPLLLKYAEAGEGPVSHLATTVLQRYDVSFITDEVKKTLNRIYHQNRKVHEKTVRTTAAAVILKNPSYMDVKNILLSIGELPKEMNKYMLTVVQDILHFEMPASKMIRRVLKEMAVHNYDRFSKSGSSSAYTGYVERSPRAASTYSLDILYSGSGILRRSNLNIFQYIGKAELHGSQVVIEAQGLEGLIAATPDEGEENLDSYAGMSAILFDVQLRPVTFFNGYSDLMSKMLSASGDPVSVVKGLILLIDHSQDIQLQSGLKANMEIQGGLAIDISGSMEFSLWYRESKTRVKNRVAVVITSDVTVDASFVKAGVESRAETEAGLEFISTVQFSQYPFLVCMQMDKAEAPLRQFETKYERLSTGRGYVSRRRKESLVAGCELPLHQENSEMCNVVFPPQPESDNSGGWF
Test: co-immunoprecipitation from IEC lysates with PRAP1- or MTTP-specific antibody, immunoblot
Method: FIGS. 2A to 2H depict that PRAP1 formed a complex with microsomal triglyceride transfer protein (MTTP) and was involved in MTTP-mediated lipid transfer according to Example 2 of the present disclosure. FIG. 2A: Total intestinal cell lysates from control (WT), PRAP1^{-/-} (KO) or the E85V mutant mice (E85V) were immunoprecipitated with MTTP- or PRAP1-specific antibody, and the immune complexes (lanes 4-6) along with 1/50 input lysates as indicated were analyzed by immunoblotting using MTTP or PRAP1 antibodies. FIGS. 2B and 2C: Recombinant PRAP1 (rPRAR1, i.e., PRAP1ΔN20; designated as “rWT” in FIGS. 2B and 2C) stimulated the triglyceride (TG; FIG. 2B) and phospholipid (FIG. 2C) transfer activity of MTTP in the intestinal epithelial cells (IECs) purified from PRAP1^{-/-} mice. FIG. 2D: Immunoblotting analysis of MTTP expression in the intestinal cell lysates of control (PRAP1^{+/+}) or PRAP1^{-/-} mice. FIGS. 2E and 2F: MTTP-mediated transfer of TG (FIG. 2E) or phospholipid (FIG. 2F) was determined in PRAP1-deficient (PRAP1^{-/-}) IEC homogenates that had been pre-incubated with 10 μg of recombinant WT PRAP1 or the indicated mutant of PRAP1 (all without N-terminal 20 aa). […] N=3-4 for each panel. *, p<0.05; **, p<0.01; ***, p<0.001; n.s., p>0.05. FIGS. 2B, 2C, 2G and 2H: compared to the activity of PRAP1^{+/+} (bar 1). FIGS. 2E and 2F: compared to the activity in PRAP^{-/-} (bar 2). […]

B1: endogenous E85V mutant PRAP1 in intestinal epithelial cells of E85V knock-in mice (other)
chain: APAHQVPVKTKGKHVFPEQETEKVWDTRALEPLEKDNQLGPLLPEPKQKPAAAEEKRPDAMTWVVTEDILSHLRSPLQGPELDLDSIDHPMSDDVQDEEVPQSRPILYRQVLQGPEEDLDHLAHSMEDS
notes: Endogenous protein in lysates of PRAP1 E85V/E85V mice; The 20-aa signal peptide is called putative; also called E85V mutant of PRAP1; mouse E85V mutant PRAP1
binding result: no binding
